According to patent US20250263459A1, “STABILIZED PACAP PEPTIDE” (SENJU PHARMACEUTICAL CO., LTD., priority 2019, published 2025):
Non-standard residues stand in square brackets, D forms with d. No end group written: not given here. Ala(1H-tetrazol-5-yl) = N[C@@H](Cc1nnn[nH]1)C(=O)O; Tz = tetrazole-substituted aspartic acid; Aib = CC(C)(N)C(=O)O

T1: PAC1 receptor (UniProt P41586 21-468, limits assumed)
T1 sequence (looked up): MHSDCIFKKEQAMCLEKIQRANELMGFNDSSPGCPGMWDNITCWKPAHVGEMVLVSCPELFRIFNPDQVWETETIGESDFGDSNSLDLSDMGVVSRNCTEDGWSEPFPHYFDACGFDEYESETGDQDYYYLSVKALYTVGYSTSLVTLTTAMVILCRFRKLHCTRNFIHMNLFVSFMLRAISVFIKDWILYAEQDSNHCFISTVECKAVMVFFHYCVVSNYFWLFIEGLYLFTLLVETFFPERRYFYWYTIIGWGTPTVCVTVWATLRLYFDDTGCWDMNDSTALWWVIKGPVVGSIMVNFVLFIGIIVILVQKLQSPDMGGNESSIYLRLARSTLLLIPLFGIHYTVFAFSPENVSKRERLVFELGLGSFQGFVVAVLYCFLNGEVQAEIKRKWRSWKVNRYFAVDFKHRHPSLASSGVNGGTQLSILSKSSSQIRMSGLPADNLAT

T2: VPAC1 receptor (UniProt P32241 31-457, limits assumed)
T2 sequence (looked up): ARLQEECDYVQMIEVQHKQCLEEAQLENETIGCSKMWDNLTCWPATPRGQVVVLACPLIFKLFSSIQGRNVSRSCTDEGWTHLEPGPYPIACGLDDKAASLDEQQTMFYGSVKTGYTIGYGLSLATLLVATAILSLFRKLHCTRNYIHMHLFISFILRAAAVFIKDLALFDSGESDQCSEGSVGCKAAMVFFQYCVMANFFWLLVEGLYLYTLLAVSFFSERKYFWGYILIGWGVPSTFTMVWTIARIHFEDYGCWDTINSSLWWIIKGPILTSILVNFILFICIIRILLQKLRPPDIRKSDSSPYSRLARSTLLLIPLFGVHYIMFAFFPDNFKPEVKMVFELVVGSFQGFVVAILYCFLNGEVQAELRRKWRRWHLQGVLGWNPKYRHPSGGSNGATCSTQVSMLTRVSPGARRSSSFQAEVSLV


Experiments:
PAC1 receptor = molecular target: T1, PAC1 receptor; assay: cell-based or functional assay
VPAC1 receptor = molecular target: T2, VPAC1 receptor; assay: cell-based or functional assay

| Binder | EC50, cAMP assay (Hit Hunter cAMP, chemiluminescence RLU) (PAC1 receptor) | EC50, cAMP assay (Hit Hunter cAMP, chemiluminescence RLU) (VPAC1 receptor) |
| --- | --- | --- |
| HS[Tz]GIFA[Tz][Aib]YSRYRKQMAVKKYLAAVL-NH2 (also: Tz racemic) [Peptide 4] | 2.36 nM | 0.121 nM |
| HS[Tz]GIFA[Tz]SY[Aib]RYRKQMAVKKYLAAVL-NH2 (also: Tz racemic) [Peptide 5] | 0.695 nM | 0.078 nM |
| HS[Tz]GIFA[Tz][Aib]Y[Aib]RYRKQMAVKKYLAAVL-NH2 (also: Tz racemic) [Peptide 6] | 1.17 nM | 0.11 nM |
| HS[Tz]GIFT[Tz][Aib]Y[Aib]RYRKQMAVKKYLAAVL-NH2 (also: Tz racemic) [Peptide 7] | 0.319 nM | 0.096 nM |
| HS[Tz]GIFT[Tz]SYSRYRKQMAVKKYLA-NH2 (also: Tz racemic) [Peptide 8] | 0.679 nM | 0.045 nM |
| HSXGIFTXSYSRYRKQMAVKKYLAAV (tetrazole-substituted aspartic acid (Tz, racemic) at positions 3 and 8; C-terminal amide (NH2)) [Peptide 9] | 0.287 nM | 0.079 nM |
| HSXGIFTXSYSRYRKQLAVKKYLAAVL (sulfoxy-substituted aspartic acid (cya) at positions 3 and 8; C-terminal amide (NH2)) [Peptide 10] | 0.447 nM | 0.057 nM |
| HSXGIFTXSYSRYRKQXAVKKYLAAVL (sulfoxy-substituted aspartic acid (cya) at positions 3 and 8; norleucine (Nl) at position 17; C-terminal amide (NH2)) [Peptide 11] | 0.911 nM | 0.08 nM |
| MHSXGIFTXSYSRYRKQLAVKKYLAAVL (tetrazole-substituted aspartic acid (Tz) at positions 4 and 9 of this 28-residue peptide (positions 3 and 8 of PACAP27); C-terminal amide (NH2)) [Peptide 12] | 4.28 nM | 0.651 nM |
| HSXGIFTXSYSRYRKQXAVKKYLAAVL (D-form tetrazole-substituted aspartic acid (Tz(D)) at positions 3 and 8; norleucine (Nl) at position 17; C-terminal amide (NH2)) [Peptide 13] | 0.738 nM | 0.082 nM |
| HSXGIFTXSYSRYRKQXAVKKYLAAVL (tetrazole-substituted aspartic acid (Tz) at position 3; D-form tetrazole-substituted aspartic acid (Tz(D)) at position 8; norleucine (Nl) at position 17; C-terminal amide (NH2)) [Peptide 14] | 0.857 nM | 0.107 nM |
| HS[Ala(1H-tetrazol-5-yl)]GIFA[Ala(1H-tetrazol-5-yl)]AYSRYRKQMAVKKYLAAVL-NH2 (also: Tz racemic at 3 and 8) [Peptide 1] | 1.22 nM | 0.097 nM |
| HSXGIFTXSYSRYRKQXAVKKYLAAVL (D-form tetrazole-substituted aspartic acid (Tz(D)) at position 3; tetrazole-substituted aspartic acid (Tz) at position 8; norleucine (Nl) at position 17; C-terminal amide (NH2)) [Peptide 15] | 0.079 nM | 0.243 nM |
| HSXGIFTXSYSRYRKQXAVKKYLAAVL (tetrazole-substituted aspartic acid (Tz) at position 3; tetrazole-substituted glutamic acid (egTz) at position 8; norleucine (Nl) at position 17; C-terminal amide (NH2)) [Peptide 16] | 1.62 nM | 0.142 nM |
| HSXGIFTXSYSRYRKQXAVKKYLAAVL (N-terminal CH3CH2CO; tetrazole-substituted aspartic acid (Tz) at positions 3 and 8; norleucine (Nl) at position 17; C-terminal amide (NH2)) [Peptide 17] | 0.398 nM | 0.071 nM |
| HSXGIFTXSYSRYRKQXAVKKYLAAVL (N-terminal CH3CH2CH2CO; tetrazole-substituted aspartic acid (Tz) at positions 3 and 8; norleucine (Nl) at position 17; C-terminal amide (NH2)) [Peptide 18] | 0.189 nM | 0.069 nM |
| HSXGIFTXSYSRYRKQXAVKKYLAAVL (N-terminal (CH3)2CHCO; tetrazole-substituted aspartic acid (Tz) at positions 3 and 8; norleucine (Nl) at position 17; C-terminal amide (NH2)) [Peptide 19] | 0.256 nM | 0.069 nM |
| HSXGIFTXSYSRYRKQXAVKKYLAAVL (not fully specified; N-terminal CH3CH2CH2CH2CO; tetrazole-substituted aspartic acid (Tz) at positions 3 and 8; norleucine (Nl) at position 17; C-terminal amide (NH2)) [Peptide 20] | 0.574 nM | 0.131 nM |
| HSXGIFTXSYSRYRKQXAVKKYLAAVL (N-terminal (CH3)2CHCH2CO; tetrazole-substituted aspartic acid (Tz) at positions 3 and 8; norleucine (Nl) at position 17; C-terminal amide (NH2)) [Peptide 21] | 1.13 nM | 0.141 nM |
| HSXGIFTXSYSRYRKQXAVKKYLAAVL (N-terminal Ac (CH3CO); oxadiazolone-substituted aspartic acid (5Oxa) at positions 3 and 8; norleucine (Nl) at position 17; C-terminal amide (NH2)) [Peptide 22] | 0.376 nM | 0.077 nM |
| HSXGAFTXSYSRYRKQLAVKKYLAAVL (N-terminal Ac; tetrazole-substituted aspartic acid (Tz) at positions 3 and 8; C-terminal amide (NH2)) [Peptide 23] | 1.15 nM | 0.047 nM |
| HSXGIFAXSYSRYRKQLAVKKYLAAVL (N-terminal Ac; tetrazole-substituted aspartic acid (Tz) at positions 3 and 8; C-terminal amide (NH2)) [Peptide 24] | 1.26 nM | 0.042 nM |
| HS[Tz]GIFA[Tz]SYARYRKQMAVKKYLAAVL-NH2 (also: Tz racemic) [Peptide 2] | 0.61 nM | 0.085 nM |
| HAXGIFAXSYSRYRKQLAVKKYLAAVL (N-terminal Ac; tetrazole-substituted aspartic acid (Tz) at positions 3 and 8; C-terminal amide (NH2)) [Peptide 25] | 0.693 nM | 0.041 nM |
| Ac-HA[Tz]GIFT[Tz]SYSRYRKALAVKKYLAAVL-NH2 [Peptide 26] | 0.209 nM | 0.068 nM |
| HSXGIFAXAYSRYRKQLAVKKYLAAVL (N-terminal Ac; tetrazole-substituted aspartic acid (Tz) at positions 3 and 8; C-terminal amide (NH2)) [Peptide 27] | 2.53 nM | 0.111 nM |
| HSXGIFAXSYSRYRKALAVKKYLAAVL (N-terminal Ac; tetrazole-substituted aspartic acid (Tz) at positions 3 and 8; C-terminal amide (NH2)) [Peptide 28] | 2.12 nM | 0.072 nM |
| HSXGIFAXSYSRYRKQAAVKKYLAAVL (N-terminal Ac; tetrazole-substituted aspartic acid (Tz) at positions 3 and 8; C-terminal amide (NH2)) [Peptide 29] | 3.28 nM | 0.123 nM |
| Ac-HA[Tz]GIFA[Tz]AYSRYRKAAAVKKYLAAVL-NH2 [Peptide 30] | 2.29 nM | 0.113 nM |
| HS[Tz]GIFA[Tz]AYARYRKQMAVKKYLAAVL-NH2 (also: Tz racemic) [Peptide 3] | 0.689 nM | 0.111 nM |
